Source: patent publication US20240309076A1 (REGENXBIO, published 2024)

B1: NI-502.4P3 (antibody, V domains shown)
VH: EVQLVQSGAEVKKPGESLKISCKVSGYDFSKYWIGWVRQMPGKGLEWMGLIYPGDSDTRYSPSLEGQVSISADKSISAAYLQFSSLKASDSAMYYCVRKGYSAYLGGWFDPWGQGTLVTVSS
VL: DIQLTQSPDSLAASLGERVTINCRSSQNIFYNSNNKNFLAWYQQKAGQSPKLLIYWASTRESGVPDRFSGSGSGTDFTLTISGLQAGDVAVYFCQQYFTDAPTFGGGTKVEIK
B2: NI-502.8H1 (antibody, V domains shown)
VH: EVQLVESGGGLVQPGGSLRLSCAASGFTFSIYTMSWVRQAPGKGLEWVSAILSDGSTYYADSVEGRFTISRDNSKTTLYLQMNSLTAEDTAVYYCTKRVEGSFRGWGQGTLVTVSS
VL: EIVMTQSPGTLSLSPGESATLSCRASQSVSTTYLAWYQQKPGQAPRLLIYGASSRATGIPDRFSGSGSGTDFTLTISRLEPEDFAVYYCQQYGGSRLITFGQGTRLEIK

Biological target: Tau and AD-associated Tau in brain tissue and brain extracts of patients with tauopathy (AD, PSP, PiD) (human, UniProt P10636-8 2-441, limits assumed, pathologically hyperphosphorylated and aggregated; the sites are not specified)
Test: cell-based or functional assay

Chain of Tau and AD-associated Tau in brain tissue and brain extracts of patients with tauopathy (AD, PSP, PiD) (P10636 other isoform, or with tags, fused parts or gaps limits assumed): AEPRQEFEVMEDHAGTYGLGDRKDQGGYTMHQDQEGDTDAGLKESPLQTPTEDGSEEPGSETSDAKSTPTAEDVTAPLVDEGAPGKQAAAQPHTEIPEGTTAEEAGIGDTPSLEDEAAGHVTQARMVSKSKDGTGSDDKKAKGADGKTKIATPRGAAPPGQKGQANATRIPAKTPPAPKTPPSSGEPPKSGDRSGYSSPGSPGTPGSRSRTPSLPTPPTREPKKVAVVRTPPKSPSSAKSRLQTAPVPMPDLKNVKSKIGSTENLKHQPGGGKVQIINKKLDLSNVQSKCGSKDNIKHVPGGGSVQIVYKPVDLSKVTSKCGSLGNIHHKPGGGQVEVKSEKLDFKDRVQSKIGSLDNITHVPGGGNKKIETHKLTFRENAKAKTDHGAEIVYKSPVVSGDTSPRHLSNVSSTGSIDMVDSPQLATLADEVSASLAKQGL

| Binder | IC50 of Tau aggregation (integrated FRET density) in HEK293T Tau biosensor cells after immunodepletion of AD brain homogenate [µg/mL] |
| --- | --- |
| B1 | 6.5 |
| B2 | 7.1 |
